Results from patent US20220202905A1, “COMPOSITION FOR PREVENTING OR TREATING NEUROTROPHIC KERATITIS WHICH CONTAINS PACAP PEPTIDE OR STABILIZED PACAP PEPTIDE” (SENJU PHARMACEUTICAL CO., LTD., priority 2019, published 2022).
Square brackets hold non-standard residues; d marks the D form. Peptide text beside a SMILES is read from it. Ala(1H-tetrazol-5-yl) = N[C@@H](Cc1nnn[nH]1)C(=O)O; Nle = CCCC[C@H](N)C(=O)O

Key:
PAC1R = biological target: T1, PAC1R (Homo sapiens, UniProt P41586); assay: cAMP assay in PAC1R high-expressing CHO-K1 cell line; format: cell-based; conditions: Table 11; cAMP inducing effect, CHO-K1 PAC1R high-expressing cells
T1 construct: host or cells: CHO-K1
T1 sequence (P41586 21-468): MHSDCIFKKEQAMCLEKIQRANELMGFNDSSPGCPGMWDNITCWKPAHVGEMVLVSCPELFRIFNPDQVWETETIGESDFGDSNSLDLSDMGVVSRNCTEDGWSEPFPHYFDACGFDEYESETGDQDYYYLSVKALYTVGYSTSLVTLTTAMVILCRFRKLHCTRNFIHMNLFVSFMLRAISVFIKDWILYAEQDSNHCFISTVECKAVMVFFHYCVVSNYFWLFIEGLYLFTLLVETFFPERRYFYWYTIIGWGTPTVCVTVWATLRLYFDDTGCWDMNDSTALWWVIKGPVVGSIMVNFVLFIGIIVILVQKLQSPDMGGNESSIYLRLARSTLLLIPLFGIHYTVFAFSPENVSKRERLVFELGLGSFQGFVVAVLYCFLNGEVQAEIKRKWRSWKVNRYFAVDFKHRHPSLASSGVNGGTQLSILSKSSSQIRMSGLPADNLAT
Protocol: The cells were cultured for 18 to 24 hours at 37° C. in a 5% C02 incubator, adhering the cells to the plate. […] A 5-fold dilution series was then prepared with the same Cell assay buffer and used in an assay. The cAMP assay was carried out using a Hit Hunter cAMP Assay for Biologics kit (product of DiscoveRx, Cat. No. 90-0075LM25), according to the included kit instructions. […] Next, the culture medium was removed from the CHO-K1 cell culture plate, washing was performed with PBS, and the peptide-cAMP antibody liquid mixtures were added to the cells and incubated for 30 minutes under a 5% CO2 atmosphere at 37° C. A working detection solution was then added and the culture plate was shielded from light with aluminum foil and incubated at 25° C. for 1 hour. After incubation, Solution A was added and the culture plate was shielded from light with aluminum foil and then incubated at 25° C. for 3 hours. […] The obtained value for the Relative Luminescence Unit (RLU) was analyzed with GraphPad Prism Ver 6.05 (product of Graph Pad) and the EC50 value was calculated for each peptide. […] FIG. 2 and Table 11. […] A 5-fold dilution series was then prepared with the same Cell assay buffer and used in an assay. […] A 5-fold dilution series was then prepared with the same Cell assay buffer and used in an assay.

VPAC1 receptor = biological target: T2, VPAC1 receptor (UniProt P32241 31-457, limits assumed); assay: cell-based or functional assay
T2 sequence (looked up): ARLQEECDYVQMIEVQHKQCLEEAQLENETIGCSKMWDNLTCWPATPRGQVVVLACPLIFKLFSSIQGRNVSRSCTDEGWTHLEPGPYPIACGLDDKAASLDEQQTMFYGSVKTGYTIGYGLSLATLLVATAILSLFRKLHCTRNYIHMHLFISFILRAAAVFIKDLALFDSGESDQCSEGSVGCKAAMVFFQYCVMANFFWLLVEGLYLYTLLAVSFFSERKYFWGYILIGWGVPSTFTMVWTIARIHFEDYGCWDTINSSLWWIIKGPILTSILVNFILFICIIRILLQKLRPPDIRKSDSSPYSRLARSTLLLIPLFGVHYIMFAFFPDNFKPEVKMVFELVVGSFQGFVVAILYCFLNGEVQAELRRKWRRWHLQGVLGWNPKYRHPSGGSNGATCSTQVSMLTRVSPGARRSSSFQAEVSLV

PAC1 receptor = biological target: T3, PAC1 receptor (UniProt P41586 21-468, limits assumed); assay: cell-based or functional assay
T3 sequence (looked up): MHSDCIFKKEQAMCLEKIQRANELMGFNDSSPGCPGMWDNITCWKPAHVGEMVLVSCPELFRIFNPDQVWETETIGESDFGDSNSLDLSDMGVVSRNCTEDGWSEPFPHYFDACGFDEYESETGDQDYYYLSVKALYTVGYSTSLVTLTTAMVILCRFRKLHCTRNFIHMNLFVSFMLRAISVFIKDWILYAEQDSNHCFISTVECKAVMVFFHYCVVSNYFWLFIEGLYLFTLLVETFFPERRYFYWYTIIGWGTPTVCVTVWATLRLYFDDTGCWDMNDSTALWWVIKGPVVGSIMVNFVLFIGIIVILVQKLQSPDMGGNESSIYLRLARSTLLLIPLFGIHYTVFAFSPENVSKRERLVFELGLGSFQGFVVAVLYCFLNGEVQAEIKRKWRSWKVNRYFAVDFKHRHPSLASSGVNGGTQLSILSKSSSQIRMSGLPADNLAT

Molecule: CCCC[C@H](NC(=O)[C@H](CCC(N)=O)NC(=O)[C@H](CCCCN)NC(=O)[C@H](CCCNC(=N)N)NC(=O)[C@H](Cc1ccc(O)cc1)NC(=O)[C@H](CCCNC(=N)N)NC(=O)[C@H](CO)NC(=O)[C@H](Cc1ccc(O)cc1)NC(=O)[C@H](CO)NC(=O)[C@H](Cc1nnn[nH]1)NC(=O)[C@@H](NC(=O)[C@H](Cc1ccccc1)NC(=O)[C@@H](NC(=O)CNC(=O)[C@H](Cc1nnn[nH]1)NC(=O)[C@H](CO)NC(=O)[C@@H](N)Cc1c[nH]cn1)[C@@H](C)CC)[C@@H](C)O)C(=O)N[C@@H](C)C(=O)N[C@H](C(=O)N[C@@H](CCCCN)C(=O)N[C@@H](CCCCN)C(=O)N[C@@H](Cc1ccc(O)cc1)C(=O)N[C@@H](CC(C)C)C(=O)N[C@@H](C)C(=O)N[C@@H](C)C(=O)N[C@H](C(=O)N[C@@H](CC(C)C)C(N)=O)C(C)C)C(C)C [Peptide 6] (H-HS[Ala(1H-tetrazol-5-yl)]GIFT[Ala(1H-tetrazol-5-yl)]SYSRYRKQ[Nle]AVKKYLAAVL-NH2)
- EC50 (PAC1R): 0.079 nM

B1: Peptide 33 (peptide)
peptide: Ac-HA[Ala(1H-tetrazol-5-yl)]AIFT[Ala(1H-tetrazol-5-yl)]SYSRYRKQAAVKKYLAAVL-NH2
SMILES: CC[C@H](C)[C@H](NC(=O)[C@H](C)NC(=O)[C@H](Cc1nnn[nH]1)NC(=O)[C@H](C)NC(=O)[C@H](Cc1c[nH]cn1)NC(C)=O)C(=O)N[C@@H](Cc1ccccc1)C(=O)N[C@H](C(=O)N[C@@H](Cc1nnn[nH]1)C(=O)N[C@@H](CO)C(=O)N[C@@H](Cc1ccc(O)cc1)C(=O)N[C@@H](CO)C(=O)N[C@@H](CCCNC(=N)N)C(=O)N[C@@H](Cc1ccc(O)cc1)C(=O)N[C@@H](CCCNC(=N)N)C(=O)N[C@@H](CCCCN)C(=O)N[C@@H](CCC(N)=O)C(=O)N[C@@H](C)C(=O)N[C@@H](C)C(=O)N[C@H](C(=O)N[C@@H](CCCCN)C(=O)N[C@@H](CCCCN)C(=O)N[C@@H](Cc1ccc(O)cc1)C(=O)N[C@@H](CC(C)C)C(=O)N[C@@H](C)C(=O)N[C@@H](C)C(=O)N[C@H](C(=O)N[C@@H](CC(C)C)C(N)=O)C(C)C)C(C)C)[C@@H](C)O
- EC50 (VPAC1R), cAMP inducing effect (VPAC1 receptor): 0.143 nM
- EC50 (PAC1R), cAMP inducing effect (PAC1 receptor): 0.089 nM

B2: Peptide 34 (peptide)
peptide: Ac-HS[Ala(1H-tetrazol-5-yl)]AIFT[Ala(1H-tetrazol-5-yl)]SYSRYRKAAAVKKYLAAVL-NH2
SMILES: CC[C@H](C)[C@H](NC(=O)[C@H](C)NC(=O)[C@H](Cc1nnn[nH]1)NC(=O)[C@H](CO)NC(=O)[C@H](Cc1c[nH]cn1)NC(C)=O)C(=O)N[C@@H](Cc1ccccc1)C(=O)N[C@H](C(=O)N[C@@H](Cc1nnn[nH]1)C(=O)N[C@@H](CO)C(=O)N[C@@H](Cc1ccc(O)cc1)C(=O)N[C@@H](CO)C(=O)N[C@@H](CCCNC(=N)N)C(=O)N[C@@H](Cc1ccc(O)cc1)C(=O)N[C@@H](CCCNC(=N)N)C(=O)N[C@@H](CCCCN)C(=O)N[C@@H](C)C(=O)N[C@@H](C)C(=O)N[C@@H](C)C(=O)N[C@H](C(=O)N[C@@H](CCCCN)C(=O)N[C@@H](CCCCN)C(=O)N[C@@H](Cc1ccc(O)cc1)C(=O)N[C@@H](CC(C)C)C(=O)N[C@@H](C)C(=O)N[C@@H](C)C(=O)N[C@H](C(=O)N[C@@H](CC(C)C)C(N)=O)C(C)C)C(C)C)[C@@H](C)O
- EC50 (VPAC1R), cAMP inducing effect (VPAC1 receptor): 0.089 nM
- EC50 (PAC1R), cAMP inducing effect (PAC1 receptor): 0.21 nM
